These results are taken from US20210032343A1.

The target of one experiment is HER2 (human) (UniProt P04626). Put plainly: ELISA. A general note: In an ELISA, binding on a coated surface is turned into a signal by an enzyme label.
Another experiment has as its target PD-1 (human) (UniProt Q15116). Put plainly: competition ELISA; blocking PD-1/PD-L2.

Bounds are passed on as bounds.

Sequence of PD-1 (human) (Q15116 25-167): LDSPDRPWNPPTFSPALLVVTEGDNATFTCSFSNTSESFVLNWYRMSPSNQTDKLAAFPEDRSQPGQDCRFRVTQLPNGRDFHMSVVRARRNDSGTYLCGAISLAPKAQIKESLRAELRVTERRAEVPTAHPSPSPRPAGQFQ

In general, EC50 refers to the midpoint of the concentration-response curve. A word on the IC50: it is the midpoint of a concentration-inhibition curve. Read a high IC50 as weaker potency. HER2 gave an EC50 with HER2 (human) of 0.12 nM. This substance also gave an IC50 with PD-1 (human) greater than 20 nM.
